From PMC9210341

What was measured:
Assay in all cases: SPR
[1] = target: equine angiotensin converting enzyme 2 (residues 19-615) (horse (equine))
[2] = target: SARS-CoV-2 Beta variant receptor binding domain (residues 319-541) (SARS-CoV-2 (Beta variant)) (UniProt P0DTC2)
[3] = target: SARS-CoV-2 Delta variant receptor binding domain (residues 319-541) (SARS-CoV-2 (Delta variant)) (UniProt P0DTC2)

| Substance | fold lower affinity than hACE2 with the SARS-COV-2 PT-RBD [1] | fold decrease in affinity against the SARS-CoV-2 PT-RBD [2] | fold decrease in affinity against the SARS-CoV-2 PT-RBD [3] |
| --- | --- | --- | --- |
| SARS-CoV-2 prototype receptor binding domain (residues 319-541) (from UniProt P0DTC2 319-541) (domain or fragment) | 32.2 fold | – | – |
| equine angiotensin converting enzyme 2 (residues 19-615) (from UniProt A0A9L0TPT7 19-615) (receptor) | – | 4.1 fold | 2 fold |
